Consider four molecules from publication PMC6527180, “A chloride ring is an ancient evolutionary innovation mediating the assembly of the collagen IV scaffold of basement membranes” (The Journal of Biological Chemistry, 2019).

T1: bovine α1 NC1 monomer (collagen IV α1-chain NC1 domain from bovine lens basement membrane) (bovine, UniProt Q7SIB2 1441-1669)
T1 construct: collagen IV α1-chain NC1 domain, bovine, monomer from tissue-extracted NC1 hexamer; Used as a mixture with the α2 NC1 monomer; also called tissue-derived α1 NC1 monomer; NC1 monomers; source: purified from bovine lens basement membrane
T1 sequence: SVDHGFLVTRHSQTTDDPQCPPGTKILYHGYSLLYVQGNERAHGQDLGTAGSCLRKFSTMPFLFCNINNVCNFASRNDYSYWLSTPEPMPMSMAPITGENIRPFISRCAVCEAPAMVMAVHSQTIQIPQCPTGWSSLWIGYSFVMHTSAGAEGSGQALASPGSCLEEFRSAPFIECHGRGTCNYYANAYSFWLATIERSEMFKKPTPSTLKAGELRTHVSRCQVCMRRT

T2: human collagen IV α1-chain NC1 domain, first domain of the single-chain trimer (residues 1438–1666) (human, UniProt P02462 1438-1666)
T2 construct: collagen IV α1-chain NC1 domain, human, residues 1438–1666; Not a free protein: joined by a GTG linker to m5 on the single chain m1; written apart for the domain-domain contacts in the crystal structure; also called α1 NC1 domain; not shown: FLAG, N-terminal, kept
T2 sequence (looked up): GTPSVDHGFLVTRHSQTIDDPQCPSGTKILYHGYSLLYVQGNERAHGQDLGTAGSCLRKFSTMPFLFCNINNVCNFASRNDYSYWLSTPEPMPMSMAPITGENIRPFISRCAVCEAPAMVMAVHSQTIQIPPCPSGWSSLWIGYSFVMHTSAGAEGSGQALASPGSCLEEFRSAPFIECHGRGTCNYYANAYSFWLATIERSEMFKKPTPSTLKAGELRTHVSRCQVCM

B1: single-chain α121 NC1 trimer (sc121 NC1-trimer) (other, human)
chain: GTPSVDHGFLVTRHSQTIDDPQCPSGTKILYHGYSLLYVQGNERAHGQDLGTAGSCLRKFSTMPFLFCNINNVCNFASRNDYSYWLSTPEPMPMSMAPITGENIRPFISRCAVCEAPAMVMAVHSQTIQIPPCPSGWSSLWIGYSFVMHTSAGAEGSGQALASPGSCLEEFRSAPFIECHGRGTCNYYANAYSFWLATIERSEMFKKPTPSTLKAGELRTHVSRCQVCMGTGYLLVKHSQTDQEPMCPVGMNKLWSGYSLLYFEGQEKAHNQDLGLAGSCLARFSTMPFLYCNPGDVCYYASRNDKSYWLSTTAPLPMMPVAEDEIKPYISRCSVCEAPAIAIAVHSQDVSIPHCPAGWRSLWIGYSFLMHTAAGDEGGGQSLVSPGSCLEDFRATPFIECNGGRGTCHYYANKYSFWLTTIPEQSFQGSPSADTLKAGLIRTHISRCQVCMAPGFLVTRHSQTIDDPQCPSGTKILYHGYSLLYVQGNERAHGQDLGTAGSCLRKFSTMPFLFCNINNVCNFASRNDYSYWLSTPEPMPMSMAPITGENIRPFISRCAVCEAPAMVMAVHSQTIQIPPCPSGWSSLWIGYSFVMHTSAGAEGSGQALASPGSCLEEFRSAPFIECHGRGTCNYYANAYSFWLATIERSEMFKKPTPSTLKAGELRTHVSRCQVCMRRT
notes: collagen IV α1-chain NC1 domain, human, residues 1438–1666; artificial Gly–Thr–Gly linker between α1 and α2; collagen IV α2-chain NC1 domain, human, residues 1490–1709; artificial Ala–Pro–Gly linker between α2 and α1; collagen IV α1-chain NC1 domain, human, residues 1446–1669 (including final C-terminal residues); Vector-derived residues between the FLAG tag and the first α1 residue may be …
B2: bovine α2 NC1 monomer (collagen IV α2-chain NC1 domain from bovine lens basement membrane) (domain or fragment)
chain: ISIGYLLVKHSQTDQEPMCPVGMNKLWSGYSLLYFEGQEKAHNQDLGLAGSCLARFSTMPFLYCNPGDVCYYASRNDKSYWLSTTAPLPMMPVAEEDIRPYISRCSVCEAPAVAIAVHSQDVSIPHCPAGWRSLWIGYSFLMHTAAGDEGGGQSLVSPGSCLEDFRATPFIECNGARGTCHYYANKYSFWLTTIPEQSFQGTPSADTLKAGLIRTHISRCQVCMKNL
notes: collagen IV α2-chain NC1 domain, bovine, monomer from tissue-extracted NC1 hexamer; Used as a mixture with the α1 NC1 monomer; also called tissue-derived α2 NC1 monomer; NC1 monomers; source: purified from bovine lens basement membrane
B3: human collagen IV α2-chain NC1 domain, second domain of the single-chain trimer (residues 1490–1709) (domain or fragment, UniProt P08572 1490-1709, looked up)
chain: YLLVKHSQTDQEPMCPVGMNKLWSGYSLLYFEGQEKAHNQDLGLAGSCLARFSTMPFLYCNPGDVCYYASRNDKSYWLSTTAPLPMMPVAEDEIKPYISRCSVCEAPAIAIAVHSQDVSIPHCPAGWRSLWIGYSFLMHTAAGDEGGGQSLVSPGSCLEDFRATPFIECNGGRGTCHYYANKYSFWLTTIPEQSFQGSPSADTLKAGLIRTHISRCQVCM
notes: collagen IV α2-chain NC1 domain, human, residues 1490–1709; Not a free protein: joined by GTG (N-terminal side, to m4) and APG (C-terminal side, to m6) linkers on the single chain m1; also called α2 NC1 domain
B4: human collagen IV α1-chain NC1 domain, third domain of the single-chain trimer (residues 1446–1669) (domain or fragment, UniProt P02462 1446-1669, looked up)
chain: FLVTRHSQTIDDPQCPSGTKILYHGYSLLYVQGNERAHGQDLGTAGSCLRKFSTMPFLFCNINNVCNFASRNDYSYWLSTPEPMPMSMAPITGENIRPFISRCAVCEAPAMVMAVHSQTIQIPPCPSGWSSLWIGYSFVMHTSAGAEGSGQALASPGSCLEEFRSAPFIECHGRGTCNYYANAYSFWLATIERSEMFKKPTPSTLKAGELRTHVSRCQVCMRRT
notes: collagen IV α1-chain NC1 domain, human, residues 1446–1669 (including final C-terminal residues); Not a free protein: joined by an APG linker to m5 on the single chain m1; also called α1 NC1 domain

Data set [1] concerns the molecule itself. Briefly: crystal structure; X-ray, 1.9 Å, space group P4_(1)2_(1)2; protein 11 mg/ml in 5 mM Tris-HCl pH 7.5, 150 mM NaCl; hexamer by crystallographic 2-fold.
Data set [2] concerns the target T1, bovine α1 NC1 monomer (collagen IV …). The experiment in a line: co-IP; bovine α1 and α2 NC1 monomers incubated with sc121 NC1-trimer in the presence of Cl−; formed hexamers immunoprecipitated by the FLAG tag of the recombinant trimer and their composition analysed (Fig. S3). The note with it: both partners purified.
The target in data set [3] is B2. The data set is described as above. The note with it: both partners purified.
Data set [4] deals with the molecule itself. The experiment in a line: SEC; in vitro hexamer assembly: 1 mg/ml in 25 mM Tris acetate pH 7.5, induced with 150 mM NaCl, 24 h at 37 °C unless varied (NaCl, protein, temperature, time); hexamer peak quantified by SEC; second-order fit T+T→H. A general note: SEC sorts molecules by how far they enter the pores of the column.
Data set [5] concerns the molecule itself. Briefly: AUC; sedimentation equilibrium, 0.3 mg/ml in Cl−-free TNA (25 mM Tris acetate pH 7.5, 150 mM sodium acetate), 4 °C, 10,000 rpm, 48 h; trimer–to–hexamer self-association model (two single chains to one hexamer), trimer mass fixed to 74 kDa.
The target in data set [6] is T1, bovine α1 NC1 monomer (collagen IV …). Briefly: SEC; in vitro hexamer assembly: 1 mg/ml in 25 mM Tris acetate pH 7.5, induced with 150 mM NaCl, 24 h at 37 °C unless varied (NaCl, protein, temperature, time); hexamer peak quantified by SEC; second-order fit T+T→H. Conditions: both partners purified.
The target of data set [7] is B4. The experiment in a line: crystal structure; X-ray, 1.9 Å, space group P4_(1)2_(1)2; protein 11 mg/ml in 5 mM Tris-HCl pH 7.5, 150 mM NaCl; hexamer by crystallographic 2-fold. Conditions: both partners purified.
Data set [8] deals with T2, human collagen IV α1-chain NC1 domain, …. The data set is described as above. Conditions: both partners purified.

For the molecule B1, in data set [1], the “stoichiometry N” value stood at 2. Moreover, the binding result in data set [2] and in data set [3] was “binds” in each case. This molecule also yielded a kon in data set [4] of 3.45 ± 0.12 M⁻¹ s⁻¹. Further, in data set [5], the dissociation constant Kd stood at 37 µM.

B2: in data set [6], the binding result is listed as “binds”.

For the molecule B3, the binding result in data set [7] and in data set [8] was “binds” throughout.

Regarding B4, the binding result in data set [8] is “binds”.

A word on the stoichiometry N: it is the number of molecules, sites or subunits per partner or assembly. As a reminder, the kon is the rate constant with which the complex forms. Low values mean slower complex formation, high ones faster complex formation. Usually Kd stands for the equilibrium constant for the complex coming apart. Read a high Kd as weaker binding.
